Results: patent publication US20150376260A1

Experiments:
[1] = biological target: CD86 (B7.2), human, on lymphatic cancer cell lines (human) (UniProt P42081); test: cell-based or functional assay
[2] = biological target: CD80 (B7.1), human, on lymphatic cancer cell lines (human) (UniProt P33681); test: cell-based or functional assay
UniProt P33681, sequence (P33681 35-288): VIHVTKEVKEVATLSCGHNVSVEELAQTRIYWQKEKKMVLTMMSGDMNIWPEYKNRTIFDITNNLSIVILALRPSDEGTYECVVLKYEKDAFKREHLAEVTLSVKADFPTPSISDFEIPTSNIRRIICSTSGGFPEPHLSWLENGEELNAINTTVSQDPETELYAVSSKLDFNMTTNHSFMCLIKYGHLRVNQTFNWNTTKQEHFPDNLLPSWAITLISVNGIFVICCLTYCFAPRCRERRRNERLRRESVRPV

UniProt P42081, sequence (P42081 24-329): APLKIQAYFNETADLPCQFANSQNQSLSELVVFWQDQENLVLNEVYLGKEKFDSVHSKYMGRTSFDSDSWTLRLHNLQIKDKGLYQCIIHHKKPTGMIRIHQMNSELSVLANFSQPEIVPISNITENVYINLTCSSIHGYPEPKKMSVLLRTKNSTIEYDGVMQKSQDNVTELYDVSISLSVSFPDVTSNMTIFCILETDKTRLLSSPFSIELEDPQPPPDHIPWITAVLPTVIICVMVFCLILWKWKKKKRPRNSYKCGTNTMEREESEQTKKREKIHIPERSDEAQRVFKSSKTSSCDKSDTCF

Substance: CTLA4-FasL fusion protein
- cancer killing activity (in-vitro bioassay, MTS cell viability) on lymphatic cancer cells [1]: 0.02 nM
- cancer killing activity (in-vitro bioassay, MTS cell viability) on lymphatic cancer cells [2]: 0.02 nM
